Experimental data: paper PMC5716189, “Characterization of the APLF FHA–XRCC1 phosphopeptide interaction and its structural and functional implications” (Nucleic Acids Research, 2017)
One block for each substance: values may come before it.

How the values were obtained:
[1] = target: XRCC1pSpT-9 none (pSer518; pThr519) (UniProt P18887); assay: 1D 31P NMR pH titration of the free phosphopeptide (600 MHz); settings: pH 4.0-8.5, 35°C, no added NaCl (50 mM sodium acetate, 50 mM sodium cacodylate)
[2] = target: XRCC4pSpT-12 none (pSer232; pThr233) (UniProt Q13426); assay: as above; settings: pH 4.0-8.5, 35°C, no added NaCl (50 mM sodium acetate, 50 mM sodium cacodylate)
[3] = target: XRCC1pSpT-18 (unlabelled, NMR samples) none (pSer518; pThr519) (UniProt P18887); assay: 1H,15N-HSQC titration with 1H lineshape simulation (500 MHz); settings: pH 7.4, 35°C, 150 mM NaCl, 25 mM HEPES, 25 mM MES
[4] = target: XRCC1 (Homo sapiens) (UniProt P18887); assay: fluorescence; settings: cited from earlier work
[5] = target: XRCC1 tetraphosphorylated peptide (Homo sapiens) (UniProt P18887); settings: cited from earlier work
Chain of XRCC1 tetraphosphorylated peptide (Homo sapiens) (P18887 whole entry): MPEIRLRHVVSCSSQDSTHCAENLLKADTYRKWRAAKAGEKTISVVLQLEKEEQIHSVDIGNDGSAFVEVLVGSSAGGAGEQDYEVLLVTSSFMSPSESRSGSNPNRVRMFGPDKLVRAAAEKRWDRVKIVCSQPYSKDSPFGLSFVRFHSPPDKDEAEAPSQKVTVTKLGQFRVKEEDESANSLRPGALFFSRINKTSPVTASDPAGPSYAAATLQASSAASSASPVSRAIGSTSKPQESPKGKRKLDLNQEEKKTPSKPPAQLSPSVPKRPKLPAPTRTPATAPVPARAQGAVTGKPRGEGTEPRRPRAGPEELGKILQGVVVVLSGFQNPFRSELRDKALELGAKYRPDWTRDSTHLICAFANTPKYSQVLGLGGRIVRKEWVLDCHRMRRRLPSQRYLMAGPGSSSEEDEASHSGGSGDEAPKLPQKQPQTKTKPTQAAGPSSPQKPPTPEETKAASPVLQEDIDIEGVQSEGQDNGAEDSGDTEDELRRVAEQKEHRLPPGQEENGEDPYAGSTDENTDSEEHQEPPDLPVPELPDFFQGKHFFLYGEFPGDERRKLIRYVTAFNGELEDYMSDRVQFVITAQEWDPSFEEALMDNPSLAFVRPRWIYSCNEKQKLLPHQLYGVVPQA

Chain of XRCC1pSpT-9 none (pSer518; pThr519) (P18887 whole entry): as the sequence (P18887 whole entry) above
Chain of XRCC4pSpT-12 none (pSer232; pThr233) (Q13426 whole entry): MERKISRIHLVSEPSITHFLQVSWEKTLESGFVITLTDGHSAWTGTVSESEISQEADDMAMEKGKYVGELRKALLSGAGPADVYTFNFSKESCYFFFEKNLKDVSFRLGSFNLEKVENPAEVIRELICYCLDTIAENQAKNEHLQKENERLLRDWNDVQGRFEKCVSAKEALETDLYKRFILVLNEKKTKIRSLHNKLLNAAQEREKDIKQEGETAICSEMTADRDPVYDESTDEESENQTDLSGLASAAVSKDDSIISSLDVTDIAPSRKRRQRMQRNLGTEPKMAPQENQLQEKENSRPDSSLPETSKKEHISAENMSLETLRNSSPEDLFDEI
Chain of XRCC1 (Homo sapiens) (P18887 whole entry): as the sequence (P18887 whole entry) above
Chain of XRCC1pSpT-18 (unlabelled, NMR samples) none (pSer518; pThr519) (P18887 whole entry): as above

- pK, pSer518 phosphate of XRCC1pSpT-9 [1]: 6.56 pH units
- pK, pThr519 phosphate of XRCC1pSpT-9 [1]: 6.86 pH units
- pK, pSer232 phosphate of XRCC4pSpT-12 [2]: 6.9 pH units
- pK, pThr233 phosphate of XRCC4pSpT-12 [2]: 7.22 pH units
Substance: APLF FHA domain

- τB (lifetime of the protein-peptide complex) [3]: 0.9 ms
Substance: U-[15N] APLF FHA domain

Substance: PNKP FHA (from UniProt Q96T60)
- Kd [4]: 3.5 nM
- Kd [5]: 140 nM
